From paper PMC4945075

Target: T1, His-tagged cyt-SpoIIE (cytosolic part of SpoIIE), fluorescently labeled (B. subtilis)
T1 sequence (P37475 whole entry, looked up): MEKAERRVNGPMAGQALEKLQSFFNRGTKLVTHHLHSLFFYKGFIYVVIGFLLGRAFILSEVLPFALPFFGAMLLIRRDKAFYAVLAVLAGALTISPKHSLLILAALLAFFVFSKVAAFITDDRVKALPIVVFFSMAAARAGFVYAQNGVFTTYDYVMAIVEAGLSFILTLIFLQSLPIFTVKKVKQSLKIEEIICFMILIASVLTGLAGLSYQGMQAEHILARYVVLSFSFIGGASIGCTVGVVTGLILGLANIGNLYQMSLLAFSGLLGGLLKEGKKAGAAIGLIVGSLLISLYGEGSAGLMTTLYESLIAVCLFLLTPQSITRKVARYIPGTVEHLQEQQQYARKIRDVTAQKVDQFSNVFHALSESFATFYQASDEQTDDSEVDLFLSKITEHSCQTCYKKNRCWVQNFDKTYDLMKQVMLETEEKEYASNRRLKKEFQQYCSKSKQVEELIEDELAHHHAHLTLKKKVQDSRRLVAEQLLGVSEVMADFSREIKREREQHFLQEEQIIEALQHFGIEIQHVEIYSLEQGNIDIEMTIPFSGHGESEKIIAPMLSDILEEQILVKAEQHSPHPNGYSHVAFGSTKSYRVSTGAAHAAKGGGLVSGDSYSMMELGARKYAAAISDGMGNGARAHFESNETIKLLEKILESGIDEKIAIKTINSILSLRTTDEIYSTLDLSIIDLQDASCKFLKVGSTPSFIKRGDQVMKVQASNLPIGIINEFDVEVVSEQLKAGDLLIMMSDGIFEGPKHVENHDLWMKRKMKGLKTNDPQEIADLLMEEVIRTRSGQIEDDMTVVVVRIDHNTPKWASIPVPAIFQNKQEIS
Experiment: MST; labeled cyt-SpoIIE constant at 34 μM, unlabeled cyt-RodZ titrated 6.7 nM to 221 μM; 25 mM Tris-HCl pH 8.0, 150 mM NaCl, 40 mM imidazole, 5% glycerol, 0.05% Tween-20; Monolith NT.115; 'preliminary Kd'

B1: His6-tagged cyt-RodZ (cytosolic part of RodZ) (domain or fragment)
chain: MFVVTELGIRLKEAREEKAMSLDDLQAATKIQKRYLTALEEGNYDIIPGKFYVRAFIKQYAEAVGLDADQLFEEHKKDIPNTYHDDVSEKI
Kd: 10 µM
